# Molecular target: T1, E0 (EGFR-OMCP bispecific fusion protein: cetuximab scFv - (GGGGS)3 linker - OMCP - His8 tag)
# T1 construct: also called OMCP-EGFR; OMCP-EGFR scFv
# Experiment: SPR (ProteOn XPR36), human NKG2D amine-coupled to the chip, bispecific as analyte, 1:1 Langmuir fit
binder,measurement,value
"human NKG2D (receptor, UniProt P26718 78-216, looked up) FLNSLFNQEVQIPLTESYCGPCPKNWICYKNNCYQFFDESKNWYESQASCMSQNASLLKVYSKEDQDLLKLVKSYHWMGLVHIPTNGSWQWEDGSILSPNLLTIIEMQKGDCALYASSFKGYIENCSTPNTYICMQRTV",Kd,0.17 nM
